From article PMC11130202

Biological target: Spa2(281-535) (S. cerevisiae (budding yeast)) (UniProt P23201)
Assay: AUC; sedimentation velocity; 20 mM HEPES pH 7.4, 50 mM NaCl, 20 °C; Spa2(281-535) 18 μM, Spa2(1-535) 13 μM, Spa2(1-281) 17 μM

stoichiometry N: 2
Substance: Spa2(281-535) (from UniProt P23201 281-535) (domain or fragment)
